Laboratory results from patent publication US7091311.
*1 amine or outer side, *2 acyl side, *3 side chain or, on linkers, in order; H or OH if unused. Bridges are numbered along the chain shown (N, C = ends). Where no end group is shown, it is not given here. [ ]: non-standard residue; d: D form. NMeSer(Bzl) = N-methyl-O-benzyl-serine, CN([C@@H](COCc1ccccc1)C(=O)[*:2])[*:1]; Phe(4-NO2) = N[C@@H](Cc1ccc([N+](=O)[O-])cc1)C(=O)O; Phe(3,4-Cl2) = N[C@@H](Cc1ccc(Cl)c(Cl)c1)C(=O)O; DiPhAla = diphenylalanine (source's own name); Ser(Bzl) = O=C([C@H](COCc1ccccc1)N[*:1])[*:2]; Phe(4-Cl) = N[C@@H](Cc1ccc(Cl)cc1)C(=O)O; 1Nal = N[C@@H](Cc1cccc2ccccc12)C(=O)O; 2Nal = N[C@@H](Cc1ccc2ccccc2c1)C(=O)O; hPhe = N[C@@H](CCc1ccccc1)C(=O)O; 2Thi = N[C@@H](Cc1cccs1)C(=O)O; Cha = N[C@@H](CC1CCCCC1)C(=O)O; Phg = N[C@H](C(=O)O)c1ccccc1; Tle = CC(C)(C)[C@H](N)C(=O)O; NMeV = CN[C@H](C(=O)O)C(C)C; NMeA = CN[C@@H](C)C(=O)O; Nle = CCCC[C@H](N)C(=O)O; Nva = CCC[C@H](N)C(=O)O; Abu = CC[C@H](N)C(=O)O; Aib = CC(C)(N)C(=O)O; Sar = CNCC(=O)O

B1: [drawing CHEM-US-00006] (SEQ ID NO:173) (peptide)
peptide: ADGPTLREWISFC
modifications: not fully specified; also: further groups not given here
B2: [drawing CHEM-US-00013] (SEQ ID NO:173) (peptide)
peptide: ADGPTLREWISFC
modifications: not fully specified; also: further groups not given here
B3: SEQ ID NO:12 cyclized, S - Sar (peptide)
peptide: CADGPTLREWI[Sar]FC
modifications: disulfide 1-14 (inferred); not fully specified
B4: SEQ ID NO:12 cyclized, S - Aib (peptide)
peptide: CADGPTLREWI[Aib]FC
modifications: disulfide 1-14 (inferred); not fully specified
B5: SEQ ID NO:12 cyclized, S - Nva (peptide)
peptide: CADGPTLREWI[Nva]FC
modifications: disulfide 1-14 (inferred); not fully specified
B6: SEQ ID NO:12 cyclized, S - Abu (peptide)
peptide: CADGPTLREWI[Abu]FC
modifications: disulfide 1-14 (inferred); not fully specified
B7: SEQ ID NO:12 cyclized, S - (N-Me-Ala) (peptide)
peptide: CADGPTLREWI[NMeA]FC
modifications: disulfide 1-14 (inferred); not fully specified
B8: SEQ ID NO:12 cyclized, S - (N-Me-Val) (peptide)
peptide: CADGPTLREWI[NMeV]FC
modifications: disulfide 1-14 (inferred); not fully specified
B9: SEQ ID NO:12 cyclized, S - (Nor-Leu) (peptide)
peptide: CADGPTLREWI[Nle]FC
modifications: disulfide 1-14 (inferred); not fully specified
B10: SEQ ID NO:12 cyclized, S - (t-Bu-Gly) (peptide)
peptide: CADGPTLREWI[Tle]FC
modifications: disulfide 1-14 (inferred); not fully specified
B11: SEQ ID NO:12 cyclized, S - [N-Me-Ser(Bzl)] (peptide)
peptide: CADGPTLREWI[NMeSer(Bzl)]FC
modifications: disulfide 1-14 (inferred); not fully specified
B12: SEQ ID NO:12 cyclized, F - Homo-Phe (peptide)
peptide: CADGPTLREWIS[hPhe]C
modifications: disulfide 1-14 (inferred); not fully specified
B13: SEQ ID NO:12 cyclized, F - CHA (peptide)
peptide: CADGPTLREWIS[Cha]C
modifications: disulfide 1-14 (inferred); not fully specified
B14: SEQ ID NO:12 cyclized, F - Thi (peptide)
peptide: CADGPTLREWIS[2Thi]C
modifications: disulfide 1-14 (inferred); not fully specified
B15: SEQ ID NO:12 cyclized, F - (Ser(Bzl)) (peptide)
peptide: CADGPTLREWIS[Ser(Bzl)]C
modifications: disulfide 1-14 (inferred); not fully specified
B16: SEQ ID NO:12 cyclized, F - (N-Me-Ala) (peptide)
peptide: CADGPTLREWIS[NMeA]C
modifications: disulfide 1-14 (inferred); not fully specified
B17: SEQ ID NO:12 cyclized, F - (Phenylgly) (peptide)
peptide: CADGPTLREWIS[Phg]C
modifications: disulfide 1-14 (inferred); not fully specified
B18: SEQ ID NO:12 cyclized, F - (Pyridylala) (peptide)
peptide: CADGPTLREWIS[Pyridylala]C
modifications: not fully specified (bridges); also: cyclized, type not given here
B19: SEQ ID NO:12 cyclized, F - (p-Nitrophe) (peptide)
peptide: CADGPTLREWIS[Phe(4-NO2)]C
modifications: disulfide 1-14 (inferred); not fully specified
B20: SEQ ID NO:12 cyclized, F - (3,4-di-Cl-Phe) (peptide)
peptide: CADGPTLREWIS[Phe(3,4-Cl2)]C
modifications: disulfide 1-14 (inferred); not fully specified
B21: SEQ ID NO:12 cyclized, F - (p-Cl-Phe) (peptide)
peptide: CADGPTLREWIS[Phe(4-Cl)]C
modifications: disulfide 1-14 (inferred); not fully specified
B22: SEQ ID NO:12 cyclized, F - (2-Nal) (peptide)
peptide: CADGPTLREWIS[2Nal]C
modifications: disulfide 1-14 (inferred); not fully specified
B23: SEQ ID NO:12 cyclized, F - (1-Nal) (peptide)
peptide: CADGPTLREWIS[1Nal]C
modifications: disulfide 1-14 (inferred); not fully specified
B24: SEQ ID NO:12 cyclized, F - (DiPh - Ala) (peptide)
peptide: CADGPTLREWIS[DiPhAla]C
modifications: disulfide 1-14 (inferred); not fully specified
B25: [drawing CHEM-US-00027] / [drawing CHEM-US-00028] (SEQ ID NO:173) (peptide)
peptide: ADGPTLREWISFC
modifications: also: further groups not given here
B26: [drawing CHEM-US-00035] (SEQ ID NO:173)(SEQ ID NO:173) (peptide)
peptide: ADGPTLREWISFC
modifications: also: further groups not given here
B27: [drawing CHEM-US-00036] (SEQ ID NO:173)(SEQ ID NO:173) (peptide)
peptide: ADGPTLREWISFC
modifications: also: further groups not given here
B28: [drawing CHEM-US-00038] (SEQ ID NO:190)(SEQ ID NO:190) (peptide)
peptide: GPTLREWISFC
modifications: not fully specified; also: further groups not given here
B29: [drawing CHEM-US-00039] (SEQ ID NO:190)(SEQ ID NO:190) (peptide)
peptide: GPTLREWISFC
modifications: not fully specified; also: further groups not given here
B30: [drawing CHEM-US-00040] (SEQ ID NO:191)(SEQ ID NO:191) (peptide)
peptide: PTLREWISFC
modifications: not fully specified; also: further groups not given here
B31: [drawing CHEM-US-00041] (SEQ ID NO:191)(SEQ ID NO:191) (peptide)
peptide: PTLREWISFC
modifications: not fully specified; also: further groups not given here
B32: [drawing CHEM-US-00042] (SEQ ID NO:192)(SEQ ID NO:192) (peptide)
peptide: TLREWISFC
modifications: also: further groups not given here
B33: [drawing CHEM-US-00043] (SEQ ID NO:192)(SEQ ID NO:192) (peptide)
peptide: TLREWISFC
modifications: also: further groups not given here

target: soluble TPO-R (UniProt P40238); assay: competition ELISA vs MBP-TPO156
Sequence (P40238 26-491): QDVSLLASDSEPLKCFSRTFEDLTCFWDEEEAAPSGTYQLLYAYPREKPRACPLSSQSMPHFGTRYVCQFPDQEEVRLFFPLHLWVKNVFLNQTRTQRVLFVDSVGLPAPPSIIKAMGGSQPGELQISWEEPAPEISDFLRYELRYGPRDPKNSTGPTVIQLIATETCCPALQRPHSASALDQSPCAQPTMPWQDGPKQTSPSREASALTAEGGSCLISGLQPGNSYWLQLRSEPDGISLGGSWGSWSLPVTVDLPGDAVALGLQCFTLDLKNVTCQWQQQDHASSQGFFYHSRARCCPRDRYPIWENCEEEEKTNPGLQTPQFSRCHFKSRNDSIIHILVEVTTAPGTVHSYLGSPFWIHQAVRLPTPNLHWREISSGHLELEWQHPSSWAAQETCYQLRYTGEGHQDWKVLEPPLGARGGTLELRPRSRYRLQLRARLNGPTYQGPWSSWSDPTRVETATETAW

Binder | IC50 [nM]
B1 | 200000
B2 | < 500
B3 | < 500
B4 | < 500
B5 | < 500
B6 | < 500
B7 | < 200000
B8 | 200000
B9 | < 500
B10 | < 500
B11 | < 200000
B12 | < 500
B13 | < 500
B14 | < 500
B15 | < 500
B16 | 200000
B17 | < 500

Binder | IC50 [nM]
B18 | < 500
B19 | < 500
B20 | < 500
B21 | < 500
B22 | < 500
B23 | < 500
B24 | < 500
B25 | < 500
B26 | < 500
B27 | < 500
B28 | < 500
B29 | < 200000
B30 | < 500
B31 | 200000
B32 | 200000
B33 | 200000
